Results published in US20150307561.

How the values were obtained:
Experiment in all cases: cell_activity
[1] = system: TALEN L*, non-canonical RVDs (synthetic (Xanthomonas TALE scaffold))
[2] = system: TALEN L (L538), canonical RVDs (synthetic (Xanthomonas TALE scaffold)); conditions: cold shock
[3] = system: TALEN L*+17 (synthetic (Xanthomonas TALE scaffold)); conditions: for off-target activity reduction (fold reduction vs L+17): L*+17 homodimer at +17_OT1
[4] = system: TALEN L+17 (synthetic (Xanthomonas TALE scaffold)); conditions: K562, partner R2+17, cold shock
[5] = system: TALEN R*, non-canonical RVDs (synthetic (Xanthomonas TALE scaffold)); conditions: cold shock
[6] = system: TALEN R (R557), canonical RVDs (synthetic (Xanthomonas TALE scaffold)); conditions: cold shock
[7] = system: TALEN R 102128 (synthetic (Xanthomonas TALE scaffold)); conditions: K562, partner TALEN L
[8] = system: TALEN R 102105 (synthetic (Xanthomonas TALE scaffold)); conditions: K562, partner TALEN L
[9] = system: TALEN R 102161 (synthetic (Xanthomonas TALE scaffold)); conditions: K562, partner TALEN L
[10] = system: TALEN R 102112 (synthetic (Xanthomonas TALE scaffold)); conditions: K562, partner TALEN L
[11] = system: TALEN R 102177 (synthetic (Xanthomonas TALE scaffold)); conditions: K562, partner TALEN L
[12] = system: TALEN R 102151 (synthetic (Xanthomonas TALE scaffold)); conditions: K562, partner TALEN L
[13] = system: TALEN R 102123 (synthetic (Xanthomonas TALE scaffold)); conditions: K562, partner TALEN L
[14] = system: TALEN R 102162 (synthetic (Xanthomonas TALE scaffold)); conditions: K562, partner TALEN L
[15] = system: TALEN R 102150 (synthetic (Xanthomonas TALE scaffold)); conditions: K562, partner TALEN L
[16] = system: TALEN R 102124 (synthetic (Xanthomonas TALE scaffold)); conditions: K562, partner TALEN L
[17] = system: TALEN R 102158 (synthetic (Xanthomonas TALE scaffold)); conditions: K562, partner TALEN L
[18] = system: TALEN R 102156 (synthetic (Xanthomonas TALE scaffold)); conditions: K562, partner TALEN L
[19] = system: TALEN R 102109 G34R in repeat 8 (synthetic (Xanthomonas TALE scaffold)); conditions: K562, partner TALEN L
[20] = system: TALEN R 102102 (synthetic (Xanthomonas TALE scaffold)); conditions: K562, partner TALEN L
[21] = system: TALEN R 102159 (synthetic (Xanthomonas TALE scaffold)); conditions: K562, partner TALEN L
[22] = system: TALEN R 102146 (synthetic (Xanthomonas TALE scaffold)); conditions: K562, partner TALEN L
[23] = system: TALEN R 102148 (synthetic (Xanthomonas TALE scaffold)); conditions: K562, partner TALEN L
[24] = system: TALEN R 102129 (synthetic (Xanthomonas TALE scaffold)); conditions: K562, partner TALEN L
[25] = system: TALEN R 102115 (synthetic (Xanthomonas TALE scaffold)); conditions: K562, partner TALEN L
[26] = system: TALEN L 102203 (synthetic (Xanthomonas TALE scaffold)); conditions: K562, partner TALEN R
[27] = system: TALEN L 102056 (synthetic (Xanthomonas TALE scaffold)); conditions: K562, partner TALEN R
[28] = system: TALEN L 102213 (synthetic (Xanthomonas TALE scaffold)); conditions: K562, partner TALEN R
[29] = system: TALEN L 102038 (synthetic (Xanthomonas TALE scaffold)); conditions: K562, partner TALEN R
[30] = system: TALEN L 102002 (synthetic (Xanthomonas TALE scaffold)); conditions: K562, partner TALEN R
[31] = system: TALEN L 102085 (synthetic (Xanthomonas TALE scaffold)); conditions: K562, partner TALEN R
[32] = system: TALEN L 102078 (synthetic (Xanthomonas TALE scaffold)); conditions: K562, partner TALEN R
[33] = system: TALEN L 102202 (synthetic (Xanthomonas TALE scaffold)); conditions: K562, partner TALEN R
[34] = system: TALEN L 102216 (synthetic (Xanthomonas TALE scaffold)); conditions: K562, partner TALEN R
[35] = system: TALEN L 102043 (synthetic (Xanthomonas TALE scaffold)); conditions: K562, partner TALEN R
[36] = system: TALEN L 102077 (synthetic (Xanthomonas TALE scaffold)); conditions: K562, partner TALEN R
[37] = system: TALEN L 102052 (synthetic (Xanthomonas TALE scaffold)); conditions: K562, partner TALEN R
[38] = system: TALEN L 102010 (synthetic (Xanthomonas TALE scaffold)); conditions: K562, partner TALEN R
[39] = system: TALEN L 102224 (synthetic (Xanthomonas TALE scaffold)); conditions: K562, partner TALEN R
[40] = system: TALEN L 102072 (synthetic (Xanthomonas TALE scaffold)); conditions: K562, partner TALEN R
[41] = system: TALEN L 102076 (synthetic (Xanthomonas TALE scaffold)); conditions: K562, partner TALEN R
[42] = system: TALEN L 102215 (synthetic (Xanthomonas TALE scaffold)); conditions: K562, partner TALEN R
[43] = system: TALEN L 102083 (synthetic (Xanthomonas TALE scaffold)); conditions: K562, partner TALEN R
[44] = system: TALEN L 102049 (synthetic (Xanthomonas TALE scaffold)); conditions: K562, partner TALEN R
[45] = system: TALEN L 102219 (synthetic (Xanthomonas TALE scaffold)); conditions: K562, partner TALEN R
[46] = system: TALEN L 102066 (synthetic (Xanthomonas TALE scaffold)); conditions: K562, partner TALEN R
[47] = system: TALEN L 102208 (synthetic (Xanthomonas TALE scaffold)); conditions: K562, partner TALEN R
[48] = system: TALEN L 102075 (synthetic (Xanthomonas TALE scaffold)); conditions: K562, partner TALEN R
[49] = system: TALEN L 102217 (synthetic (Xanthomonas TALE scaffold)); conditions: K562, partner TALEN R
[50] = system: TALEN L 102204 (synthetic (Xanthomonas TALE scaffold)); conditions: K562, partner TALEN R
[51] = system: TALEN L 102046 (synthetic (Xanthomonas TALE scaffold)); conditions: K562, partner TALEN R; 30.1 in Table 4
[52] = system: TALEN L 102006 (synthetic (Xanthomonas TALE scaffold)); conditions: K562, partner TALEN R
[53] = system: TALEN L 102211 (synthetic (Xanthomonas TALE scaffold)); conditions: K562, partner TALEN R
[54] = system: TALEN L 102214 (synthetic (Xanthomonas TALE scaffold)); conditions: K562, partner TALEN R
[55] = system: TALEN L 102210 (synthetic (Xanthomonas TALE scaffold)); conditions: K562, partner TALEN R
[56] = system: TALEN L 102205 (synthetic (Xanthomonas TALE scaffold)); conditions: K562, partner TALEN R
[57] = system: TALEN L 102035 (synthetic (Xanthomonas TALE scaffold)); conditions: K562, partner TALEN R
[58] = system: TALEN L 102041 (synthetic (Xanthomonas TALE scaffold)); conditions: K562, partner TALEN R
[59] = system: TALEN L 102206 (synthetic (Xanthomonas TALE scaffold)); conditions: K562, partner TALEN R
[60] = system: TALEN L 102209 (synthetic (Xanthomonas TALE scaffold)); conditions: K562, partner TALEN R
[61] = OT2, L*/L* homodimer, about 180-fold below L

CCCGATGAAGCCCCAGGTGTTTTAAAT (double strand) [OT2 right half]
activity [1, 61]: 0.017 % indels
activity ([2]; OT2, L/L homodimer): 3.18 % indels

CTTCATTACACCTGCAGCTCTCA (double strand) [CCR5 +17 target, left half]
activity ([3]; K562, partner R2+17, cold shock): > 85 % indels
activity [4]: > 85 % indels

CTTGATTCCACCTGTAGCTCCGAGCAAA (double strand) [OT2 left half]
activity [1, 61]: 0.017 % indels
activity ([2]; OT2, L/L homodimer): 3.18 % indels

GTTACCAGATATCCTTTCTGGAAGAAA (double strand) [OT1 right half]
activity ([5]; OT1, L*/R*, 0.663 for L/R*): 0.32 % indels
activity ([6]; OT1, L/R): 3.17 % indels

TCTTCCAGAATTGATACT (double strand) [TALEN R binding site (CCR5)]
activity [7]: 7.6 % indels
activity [8]: 24.9 % indels
activity [9]: 9.3 % indels
activity ([5]; K562, L*/R*, 55.53 with L): 65.2 % indels
activity [10]: 6.1 % indels
activity [11]: 22.9 % indels
activity [12]: 23.6 % indels
activity [13]: 32.8 % indels
activity [14]: 23.1 % indels
activity [15]: 31.2 % indels
activity [16]: 29.1 % indels
activity [17]: 23.4 % indels
activity [18]: 25.4 % indels
activity [19]: 29.7 % indels
activity [20]: 27.8 % indels
activity [21]: 24.9 % indels
activity [22]: 31.4 % indels
activity [23]: 33.7 % indels
activity ([6]; K562, L/R): 50.6 % indels
activity [24]: 4.7 % indels
activity [25]: 27.7 % indels

TTCATTACACCTGCAGCT (double strand) [TALEN L binding site (CCR5)]
activity [26]: 16.6 % indels
activity [27]: 30.9 % indels
activity ([1]; K562, L*/R*, cold shock, 58.66 with R): 65.2 % indels
activity [28]: 34.1 % indels
activity [29]: 17.2 % indels
activity [30]: 20.3 % indels
activity [31]: 26.1 % indels
activity [32]: 25.1 % indels
activity [33]: 32.4 % indels
activity [34]: 35.4 % indels
activity [35]: 22.4 % indels
activity [36]: 23.8 % indels
activity [37]: 30.1 % indels
activity [38]: 17.3 % indels
activity [39]: 38.7 % indels
activity [40]: 24.5 % indels
activity [41]: 21.6 % indels
activity [42]: 29 % indels
activity [43]: 27 % indels
activity [44]: 25.9 % indels
activity [45]: 37.8 % indels
activity [46]: 22.9 % indels
activity [47]: 27.9 % indels
activity [48]: 10.7 % indels
activity [49]: 34.5 % indels
activity [50]: 36.6 % indels
activity [51]: 33.6 % indels
activity [52]: 1.3 % indels
activity [53]: 23.2 % indels
activity [54]: 31.2 % indels
activity [55]: 33.6 % indels
activity ([2]; K562, L/R): 50.6 % indels
activity [56]: 40.2 % indels
activity [57]: 16.8 % indels
activity [58]: 4.2 % indels
activity [59]: 23.5 % indels
activity [60]: 28.4 % indels

TTTACCCTGCAGGTGTGATGAAT (double strand) [+17_OT1 right half]
off-target activity reduction (fold reduction vs L+17) [3]: > 100

TTTAGATACACCTACCTATAAAT (double strand) [+17_OT1 left half]
off-target activity reduction (fold reduction vs L+17) [3]: > 100

TTTTATTACACTTCCAGATCTTTTATT (double strand) [OT1 left half]
activity ([1]; OT1, L*/R*, cold shock, 1.967 for L*/R): 0.32 % indels
activity ([2]; OT1, L/R): 3.17 % indels
